Experimental findings from patent US20220242962A1 (APTEVO RESEARCH AND DEVELOPMENT, published 2022) are described below.

Experiment [1] addresses T1, Fc gamma receptor RIIA H167 (human, UniProt P12318 36-218).
T1 construct: soluble SPR analyte
T1 sequence (looked up): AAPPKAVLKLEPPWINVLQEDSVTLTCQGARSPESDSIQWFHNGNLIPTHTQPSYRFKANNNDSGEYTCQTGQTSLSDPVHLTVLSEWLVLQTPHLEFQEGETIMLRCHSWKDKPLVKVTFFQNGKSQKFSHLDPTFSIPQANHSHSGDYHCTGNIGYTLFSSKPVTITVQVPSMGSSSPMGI
Nature of the experiment: SPR, Fc captured, receptor as analyte. Here is the method: (§1) Fc mutations to be potentially integrated into an ADAPTIR™ bispecific construct were analyzed for binding to the common Fc receptors (human and cyno) and C1Q, which is a component of the complement activation system. SPR experiments were conducted at 25° C. in HBS-EP+ buffer on a Biacore T200 system.
(§2) For these experiments, all four flow cells of a CM5 sensor chip were immobilized with goat F(ab′)2 anti-human Fc (Jackson ImmunoResearch) to a response level of ˜4000 RU. Fc variants and wild type Fc were diluted to 100 nM in HBS-EP+ and captured on the surface of the chip for 120 seconds at a flow rate of 10 μL/min. Fcγ receptors (human and cyno, all purchased from R&D Systems) and complement (C1Q, purchased from Quidel Corporation and Complement Technology, Inc) were diluted in HBS-EP+ and then flowed as analytes at 30 μL/min for 120 seconds followed by a 120 seconds dissociation. Regeneration was achieved by flowing 10 mM glycine pH 1.7 at 30 μL/min for 30 seconds followed by a 60 seconds stabilization. Flow cell 1 was always left as a blank (no captured protein) for purposes of background signal subtraction. Blank-subtracted sensorgrams for each captured Fc variant were inspected for the presence of binding to any of the Fcγ receptor proteins or complement. There are polymorphisms in the Human Fc receptors IIA and RIIIA, so both sequences were tested for binding.
Background: Surface plasmon resonance follows binding to a sensor surface in real time, without labels.

For the next experiment, the target named is T2, Fc gamma receptor RIIIB (human, UniProt O75015 17-200).
T2 construct: soluble SPR analyte
T2 sequence (O75015 17-200): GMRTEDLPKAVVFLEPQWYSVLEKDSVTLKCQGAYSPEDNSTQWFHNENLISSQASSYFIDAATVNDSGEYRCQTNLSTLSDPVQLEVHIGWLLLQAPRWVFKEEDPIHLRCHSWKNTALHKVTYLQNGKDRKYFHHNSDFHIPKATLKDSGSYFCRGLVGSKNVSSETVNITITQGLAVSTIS
The experiment in a line: SPR, Fc captured, receptor as analyte. Here is the method: as §1, §2

The target of experiment [2] is T3, Fc gamma receptor RIIA R167 (human, UniProt P12318 36-218).
T3 construct: soluble SPR analyte
T3 sequence (looked up): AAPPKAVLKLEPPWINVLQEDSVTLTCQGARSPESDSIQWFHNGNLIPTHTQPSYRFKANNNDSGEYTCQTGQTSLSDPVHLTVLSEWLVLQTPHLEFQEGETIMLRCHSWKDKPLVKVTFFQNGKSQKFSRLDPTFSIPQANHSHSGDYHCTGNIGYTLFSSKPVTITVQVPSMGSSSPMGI
The experiment in a line: SPR, Fc captured, receptor as analyte. Here is the method: as §1, §2

Another experiment has as its target T4, Fc gamma receptor RIIB/C (human, UniProt P31994 46-217).
T4 construct: soluble SPR analyte
T4 sequence (looked up): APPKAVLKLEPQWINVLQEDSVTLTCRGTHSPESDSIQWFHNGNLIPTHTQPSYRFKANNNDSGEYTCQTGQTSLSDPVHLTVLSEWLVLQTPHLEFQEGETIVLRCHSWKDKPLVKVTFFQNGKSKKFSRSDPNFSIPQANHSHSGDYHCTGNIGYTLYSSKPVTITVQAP
Nature of the experiment: SPR, Fc captured, receptor as analyte. Here is the method: as §1, §2

Experiment [3] addresses T5, Fc gamma receptor RIIIA F158 on CHO-K1SV cells (human, UniProt P08637 17-254).
T5 construct: whole, on cells
Nature of the experiment: flow cytometry, CHO-K1SV transfectants. Here is the method: (§3) CHO-K1SV cells stably transfected with a series of FcγR receptors were incubated with each of the […] listed in Table 23. A typical experiment labeled approximately 100,000 cells per well, in 96-well plates, with a range of binding molecule concentrations of 1 to 1000 nM, in 100 μl of PBS buffer with 0.2% BSA and 2 mM EDTA, for 30 minutes on ice, followed by washes and incubation with PE-labeled minimum cross species reactive secondary antibody, goat anti-human IgG Fcγ, F(ab′)2 ([…]) for 30 minutes to 1 hour on ice. Signal from bound molecules was detected using a LSR-II™ flow cytometer (BD Biosciences) and analyzed by FlowJo flow cytometry analysis software. Mean fluorescence intensity (MFI) of bound molecules on cells was determined after exclusion of doublets.
On the technique in general: In flow cytometry, cells or beads pass a laser one at a time.

The target of experiment [4] is T6, Fc gamma receptor RIIB/C on CHO-K1SV cells (human, UniProt P31994 43-310).
T6 construct: whole, on cells
T6 sequence (looked up): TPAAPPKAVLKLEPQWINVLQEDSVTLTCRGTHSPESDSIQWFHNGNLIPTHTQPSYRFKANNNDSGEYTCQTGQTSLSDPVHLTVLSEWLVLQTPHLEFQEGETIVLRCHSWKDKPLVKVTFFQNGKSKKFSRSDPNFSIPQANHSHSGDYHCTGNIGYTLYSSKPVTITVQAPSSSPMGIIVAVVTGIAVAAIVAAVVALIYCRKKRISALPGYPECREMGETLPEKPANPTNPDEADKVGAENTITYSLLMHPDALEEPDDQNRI
Nature of the experiment: flow cytometry, CHO-K1SV transfectants. The protocol: as §3

Experiment [5] has as its target T7, Fc gamma receptor RIIIB on CHO-K1SV cells (human, UniProt O75015 17-200).
T7 construct: whole, on cells
The experiment in a line: flow cytometry, CHO-K1SV transfectants. The protocol: as §3

Another experiment has as its target T8, Human 4-1BB ECD-AFH (human).
T8 construct: entry includes the tags; also called FOB003; HUMAN CD137 ECD-AVI-FLAG-HIS
Nature of the experiment: SPR (T200), construct captured, monomeric ECD as analyte. Here is the method: Mouse anti-human IgG (GE, BR-1008-39) at 25 μg/ml in 10 mM sodium acetate pH 5.0 was immobilized at a density of ˜10,000 response units (RU) onto each flow cell of a CM5 research-grade sensor chip (GE) by standard amine coupling chemistry. Each binding protein at approximately 100 nM in HBS-EP+ with 0.2% BSA buffer was captured in a flow cell with the immobilized anti-human IgG at a flow rate of 10 μL/min for 20 seconds, leaving one flow cell surface unmodified as the reference. Using a single-cycle kinetics mode, five different concentrations of ECD were sequentially injected through each flow cell at 30 μL/min for 300 seconds followed by a 600 second dissociation period. Regeneration was achieved by injection of 3 M MgCl₂ at a flow rate of 30 μL/min for 30 seconds followed by HBS-EP+ with 0.2% BSA buffer stabilization for 1 min.
Sensorgrams obtained from kinetic SPR measurements were analyzed by the double subtraction method. The signal from the reference flow cell was subtracted from the analyte binding response obtained from flow cells with immobilized or captured ligands. Buffer reference responses were then averaged from multiple injections. The averaged buffer reference responses were then subtracted from analyte binding responses, and the final double-referenced data were analyzed with Biacore T200 Evaluation software (2.0, GE), globally fitting data to derive kinetic parameters. All sensorgrams were fitted using a simple one-to-one binding model.

T8 sequence (chain, as listed by the source limits assumed): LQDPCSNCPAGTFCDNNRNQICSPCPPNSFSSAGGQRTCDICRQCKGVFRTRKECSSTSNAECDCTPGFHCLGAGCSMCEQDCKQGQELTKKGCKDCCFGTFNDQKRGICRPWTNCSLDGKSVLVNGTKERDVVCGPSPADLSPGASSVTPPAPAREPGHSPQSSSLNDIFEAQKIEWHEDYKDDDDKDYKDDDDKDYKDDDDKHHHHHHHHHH
T5 sequence (P08637 17-254): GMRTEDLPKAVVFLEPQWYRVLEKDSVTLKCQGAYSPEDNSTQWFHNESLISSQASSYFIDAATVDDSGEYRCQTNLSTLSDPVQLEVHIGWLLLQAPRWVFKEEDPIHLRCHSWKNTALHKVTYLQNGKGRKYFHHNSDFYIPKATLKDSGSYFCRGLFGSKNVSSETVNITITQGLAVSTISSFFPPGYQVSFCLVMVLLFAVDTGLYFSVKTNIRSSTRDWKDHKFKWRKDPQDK
T7 sequence (O75015 17-200): as the sequence (O75015 17-200) above

B1: TSC 1005 (other)
chain: EPKSSDKTHTCPPCPAPPVAAPSVFLFPPKPKDTLMISRTPEVTCVVVDVSHEDPEVKFNWYVDGVEVHNAKTKPREEQYNSTYRVVSVLTVLHQDWLNGKEYKCAVSNKALPAPIEKTISKAKGQPREPQVYTLPPSRDELTKNQVSLTCLVKGFYPSDIAVEWESNGQPENNYKTTPPVLDSDGSFFLYSKLTVDKSRWQQGNVFSCSVMHEALHNHYTQKSLSLSPG
notes: IgG1 Fc with E233P, L234V, L235A, deletion of G236, G237A, K322A (EU); also called PVAdel TSC01005
Regarding B1, the binding result in experiment [1] is “no binding”; with Fc gamma receptor RIIIB it was “no binding”; in experiment [2], “no binding”; with Fc gamma receptor RIIB/C, “no binding”; in experiment [3] it was “no binding (tested: 1 to 1000 nM)”; in experiment [4], “no binding (tested: 1 to 1000 nM)”. Besides, the binding result in experiment [5] was “no binding (tested: 1 to 1000 nM)”.

B2: FXX01066 (bispecific antibody)
chain: EVQLVQSGAEVKKPGASVKVSCKASGYTFTSYWMNWVRQAPGQGLEWMGNIYPSGGSTNYAQKFQGRVTMTVDTSTSTVYMELSSLRSEDTAVYYCASFSDGYYAYAMDYWGQGTLVTVSSGGGGSGGGGSGGGGSGGGGSEIVMTQSPATLSLSPGERATLSCRASQSVSSYLNWYQQKPGQAPRLLIYYASRRHTGIPARFSGSGSGTDFTLTISSLQPEDFAVYYCQQGYNLPYTFGQGTKVEIKEPKSSDKTHTCPPCPAPPAAAPSVFLFPPKPKDTLMISRTPEVTCVVVDVSHEDPEVKFNWYVDGVEVHNAKTKPREEQYNSTYRVVSVLTVLHQDWLNGKEYKCAVSNKALPAPIEKTISKAKGQPREPQVYTLPPSRDELTKNQVSLTCLVKGFYPSDIAVEWESNGQPENNYKTTPPVLDSDGSFFLYSKLTVDKSRWQQGNVFSCSVMHEALHNHYTQKSLSLSPGGGGSPSSYVLTQPPSVSVAPGQTARITCGGNNIGSKSVNWFQQKPGQAPVLVVYDDSGRPSGIPERFSGSTSGNTATLTISRVEAGDEADYYCQVWDSSSDHVVFGGGTKLTVLGGGGSGGGGSGGGGSGGGGSQVQLVESGGGVVQPGRSLRLSCAASGFTLSYYGMHWVRQAPGKGLEWVAAISHDGSDKYYADSVKGRFTISRDNSKNTLYLQMNSLRAEDTAVYYCSNDQFDPWGQGTLVTVSSR
notes: ADAPTIR scFv-Fc-scFv, anti-4-1BB (VH-VL) N-terminal, anti-OX40 C-terminal, PAA (del) Fc; also called FX01066
The Kd is the constant that tells how readily two partners part at equilibrium. What is called koff is the first-order rate constant of dissociation. Lower therefore signals slow dissociation. The term kon denotes a measure of how fast the partners come together. Higher therefore signals fast association. In the experiment with Human 4-1BB ECD-AFH, B2 returned a Kd of 14 nM, a koff of 0.0044 s⁻¹ and a kon of 300000 M⁻¹ s⁻¹.
